From patent US20020146805

T1: H-D-Lys(CBO)-Pro-Arg-pNA
T1 chain: KPR

T2: H-D-Pro-HHT-Arg-pNA
T2 chain: PXR

T3: Meo-Suc-Ala-Ala-Pro-Val-pNA
T3 chain: AAPV

T4: Suc-Ala-Ala-Pro-Phe-pNA
T4 chain: AAPF


Key:
H-D-Lys(CBO)-Pro-Arg-pNA = target: T1, H-D-Lys(CBO)-Pro-Arg-pNA
H-D-Pro-HHT-Arg-pNA = target: T2, H-D-Pro-HHT-Arg-pNA
[1] = target: T3, Meo-Suc-Ala-Ala-Pro-Val-pNA
Suc-Ala-Ala-Pro-Phe-pNA = target: T4, Suc-Ala-Ala-Pro-Phe-pNA

Row | Protein | chromogenic amidolytic activity (H-D-Lys(CBO)-Pro-Arg-pNA) | chromogenic amidolytic activity (H-D-Pro-HHT-Arg-pNA) | chromogenic amidolytic activity [1] | chromogenic amidolytic activity (Suc-Ala-Ala-Pro-Phe-pNA) | Specific Activity (amidolytic, release of pNA) (nmole pNA produced/min/ug protein) (H-D-Lys(CBO)-Pro-Arg-pNA) | Specific Activity (amidolytic, release of pNA) (nmole pNA produced/min/ug protein) (H-D-Pro-HHT-Arg-pNA)
1 | PFEK-protease T-6xHIS zymogen (protein) MDSKGSSQKSRLLLLLVVSNLLLCQGVVSDYKDDDDVDAAALAAPFDDDDKIVGGYALEEGEWPWQVSIQRNGSHFCGGSLIAEQWVLTAAHCFRNTSETSLYQVLLGARQLVQPGPHAMYARVRQVESNPLYQGTASSADVALVELEAPVPFTNYILPVCLPDPSVIFETGMNCWVTGWGSPSEEDLLPEPRILQKLAVPIIDTPKCNLLYSKDTEFGYQPKTIKNDMLCAGFEEGKKDACKGDSGGPLVCLVGQSWLQAGVISWGEGCARQNRPGVYIRVTAHHNWIHRIIPKLQFQPARLGGQKSRHHHHHH | No measurable chromogenic amidolytic activity was detected | No measurable chromogenic amidolytic activity was detected | No measurable chromogenic amidolytic activity was detected | No measurable chromogenic amidolytic activity was detected | – | –
2 | activated protease T-6xHIS (protein) MDSKGSSQKSRLLLLLVVSNLLLCQGVVSDYKDDDDVDAAALAAPFDDDDKIVGGYALEEGEWPWQVSIQRNGSHFCGGSLIAEQWVLTAAHCFRNTSETSLYQVLLGARQLVQPGPHAMYARVRQVESNPLYQGTASSADVALVELEAPVPFTNYILPVCLPDPSVIFETGMNCWVTGWGSPSEEDLLPEPRILQKLAVPIIDTPKCNLLYSKDTEFGYQPKTIKNDMLCAGFEEGKKDACKGDSGGPLVCLVGQSWLQAGVISWGEGCARQNRPGVYIRVTAHHNWIHRIIPKLQFQPARLGGQKSRHHHHHH | – | – | – | – | 0.057 | 0.01
